According to PMC11257990:
Values joined by “and” are separate entries in the source; they are usually repeats but may differ in a detail not shown here. Identical values can stand only once.

Target: CUL9 (endogenous, U2OS) (human (endogenous in U2OS)) (UniProt Q8IWT3)
Test: sucrose gradient fractionation; 1 mg U2OS lysate on a continuous 5–40% sucrose gradient, 160,000g, 16 h, 4 °C; fractions immunoblotted for CUL9; purified hexameric CUL9–RBX1 and dimeric CUL9^(R125A Y152A)–RBX1 run for comparison
Details: remark: other sources report otherwise

stoichiometry N: 6 and 2
Substance: CUL9 (endogenous, U2OS), Q8IWT3 1-2517
